Values joined by “and” are separate entries in the source; they are usually repeats but may differ in a detail not shown here. Equal values may be shown once.
Experiments:
[1] = target: RtcR transcriptional activator (full-length S. Typhimurium RtcR) (S. Typhimurium); assay: SEC; RtcR (48 uM) mixed with 48 uM refolded 5' tRNA-Leu(UAG) halves ending in 2',3'-cyclic phosphate; Superdex 200 Increase 10/300; 20 mM Tris-HCl pH 7.5, 100 mM NaCl, 1 mM MgCl2, 2% glycerol, 0.5% Tween 20, 1 mM ATP; peaks analysed by SDS-PAGE and denaturing gels
RtcR CARF domain = target: T1, RtcR CARF domain (Salmonella enterica serovar Typhimurium …, UniProt Q8ZLH7 1-188); assay: EMSA; 20 mM Tris-HCl pH 7.5, 50 mM NaCl, 1 mM MgCl2, 0.05% Tween 20; 1 mM ATP for RtcR; 30 min at 4 C then 30 min at room temperature; RNA 1 nM; conditions: protein: recombinant; chain copies: 2; label: 5'-32P (EMSA)
T1 sequence: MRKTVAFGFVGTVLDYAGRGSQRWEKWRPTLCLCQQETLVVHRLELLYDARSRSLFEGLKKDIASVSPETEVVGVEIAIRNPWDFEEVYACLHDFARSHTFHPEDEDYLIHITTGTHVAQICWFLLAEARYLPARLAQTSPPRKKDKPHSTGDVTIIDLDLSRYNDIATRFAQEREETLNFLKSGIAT

RtcR (full-length) = target: T2, RtcR (full-length) (Salmonella enterica serovar Typhimurium …, UniProt Q8ZLH7 1-527); assay: EMSA; 1 mM ATP; 20 mM Tris-HCl pH 7.5, 50 mM NaCl, 1 mM MgCl2, 0.05% Tween 20; 1 mM ATP for RtcR; 30 min at 4 C then 30 min at room temperature; RNA 1 nM; conditions: protein: recombinant; chain copies: 2; label: 5'-32P (EMSA)
T2 sequence: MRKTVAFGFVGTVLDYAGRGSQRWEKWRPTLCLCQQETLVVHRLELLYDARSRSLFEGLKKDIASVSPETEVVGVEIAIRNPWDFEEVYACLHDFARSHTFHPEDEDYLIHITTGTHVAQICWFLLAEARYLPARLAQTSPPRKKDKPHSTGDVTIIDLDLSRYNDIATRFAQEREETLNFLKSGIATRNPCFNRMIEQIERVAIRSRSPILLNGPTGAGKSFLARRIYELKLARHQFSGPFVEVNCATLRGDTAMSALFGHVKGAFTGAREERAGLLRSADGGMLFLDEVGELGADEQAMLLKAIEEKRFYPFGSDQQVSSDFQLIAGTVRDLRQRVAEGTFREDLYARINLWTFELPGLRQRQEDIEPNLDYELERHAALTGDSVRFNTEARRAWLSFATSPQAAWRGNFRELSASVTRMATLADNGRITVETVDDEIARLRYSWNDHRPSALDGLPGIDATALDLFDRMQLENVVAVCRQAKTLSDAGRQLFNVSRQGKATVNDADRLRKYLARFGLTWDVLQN

With “RtcR transcriptional activator (full-length S. Typhimurium RtcR) (natural protein)” the stoichiometry N [1] was 6 and 2.

With GCGGGAGUGGCGAAAUUGGUAGACGCACCAGAUUUAG (structured_RNA, 2',3'-cyclic phosphate 3' end) [tRNALeu(UAG) 5' half, after G of anticodon, cyclic phosphate] the “apparent K (half saturation)” value (RtcR CARF domain) was about 200 nM and the “apparent K (half saturation)” value (RtcR (full-length)) was about 125 nM.

GCGGGAGUGGCGAAAUUGGUAGACGCACCAGAUUUAG (structured_RNA, 3'-phosphate) [tRNALeu(UAG) 5' half, after G of anticodon, 3'-phosphate]: no binding (RtcR CARF domain).

Reference: publication PMC7790460, “An RNA Repair Operon Regulated by Damaged tRNAs”
